# Starred links: 1 amine or outer side, 2 acyl side, 3 side chain; linkers in the order of their positions; H or OH if unused. Non-standard residues stand in square brackets, D forms with d. TyrEtNAc = (2S)-3-[4-(2-acetamidoethoxy)phenyl]-2-amino-propanoic acid, CC(=O)NCCOc1ccc(C[C@H](N[*:1])C(=O)[*:2])cc1; dPro(4R-(4-pyridylmethyl)) = O=C(O)[C@H]1C[C@@H](Cc2ccncc2)CN1; Trp(βS-Me,4-F) = C[C@@H](c1c[nH]c2cccc(F)c12)[C@H](N)C(=O)O; 3Aminoazetidine3carboxyl = O=C(C1(N[*:1])CN([*:3])C1)[*:2]; Bip(4'-COOH) = N[C@@H](Cc1ccc(-c2ccc(C(=O)O)cc2)cc1)C(=O)O; Ala(1-bicyclo(1.1.1)pentyl) = N[C@@H](CC12CC(C1)C2)C(=O)O; dPro(4R-Bzl(4-F)) = O=C(O)[C@H]1C[C@@H](Cc2ccc(F)cc2)CN1; Ala(morpholin-4-yl) = N[C@@H](CN1CCOCC1)C(=O)O; Ala(piperazin-1-yl) = N[C@@H](CN1CCNCC1)C(=O)O; Ala(pyrimidin-5-yl) = N[C@@H](Cc1cncnc1)C(=O)O; Phe(4-COOH) = N[C@@H](Cc1ccc(C(=O)O)cc1)C(=O)O; Pro(cis-4-F) = O=C(O)[C@@H]1C[C@H](F)CN1; 4Pal = N[C@@H](Cc1ccncc1)C(=O)O; d(αMeS) = C[C@@](N)(CO)C(=O)O; αMeS = C[C@](N)(CO)C(=O)O; Dab = NCC[C@H](N)C(=O)O; Aib = CC(C)(N)C(=O)O
# B1: SEQ ID NO: 24 (peptide)
# peptide: cyclo([Bip(4'-COOH)][4Pal][Phe(4-COOH)]G[Pro(cis-4-F)][Trp(βS-Me,4-F)][Aib]EW[Aib][Ala(pyrimidin-5-yl)]Q[Ala(morpholin-4-yl)]G[dPro(4R-Bzl(4-F))])
# SMILES: C[C@@H](c1c[nH]c2cccc(F)c12)[C@@H]1NC(=O)[C@@H]2C[C@H](F)CN2C(=O)CNC(=O)[C@H](Cc2ccc(C(=O)O)cc2)NC(=O)[C@H](Cc2ccncc2)NC(=O)[C@H](Cc2ccc(-c3ccc(C(=O)O)cc3)cc2)NC(=O)[C@H]2C[C@@H](Cc3ccc(F)cc3)CN2C(=O)CNC(=O)[C@H](CN2CCOCC2)NC(=O)[C@H](CCC(N)=O)NC(=O)[C@H](Cc2cncnc2)NC(=O)C(C)(C)NC(=O)[C@H](Cc2c[nH]c3ccccc23)NC(=O)[C@H](CCC(=O)O)NC(=O)C(C)(C)NC1=O
# B2: SEQ ID NO: 19 (peptide)
# peptide: cyclo([Bip(4'-COOH)][4Pal][Phe(4-COOH)]G[Pro(cis-4-F)][Trp(βS-Me,4-F)][d(αMeS)]EW[Aib][Ala(pyrimidin-5-yl)]Q[Dab]G[dPro(4R-Bzl(4-F))])
# SMILES: C[C@@H](c1c[nH]c2cccc(F)c12)[C@@H]1NC(=O)[C@@H]2C[C@H](F)CN2C(=O)CNC(=O)[C@H](Cc2ccc(C(=O)O)cc2)NC(=O)[C@H](Cc2ccncc2)NC(=O)[C@H](Cc2ccc(-c3ccc(C(=O)O)cc3)cc2)NC(=O)[C@H]2C[C@@H](Cc3ccc(F)cc3)CN2C(=O)CNC(=O)[C@H](CCN)NC(=O)[C@H](CCC(N)=O)NC(=O)[C@H](Cc2cncnc2)NC(=O)C(C)(C)NC(=O)[C@H](Cc2c[nH]c3ccccc23)NC(=O)[C@H](CCC(=O)O)NC(=O)[C@@](C)(CO)NC1=O
# B3: SEQ ID NO: 2 (peptide)
# peptide: cyclo([Bip(4'-COOH)][4Pal][Phe(4-COOH)]G[Pro(cis-4-F)][Trp(βS-Me,4-F)][Aib]EW[Aib][4Pal]Q[Dab]G[dPro(4R-Bzl(4-F))])
# SMILES: C[C@@H](c1c[nH]c2cccc(F)c12)[C@@H]1NC(=O)[C@@H]2C[C@H](F)CN2C(=O)CNC(=O)[C@H](Cc2ccc(C(=O)O)cc2)NC(=O)[C@H](Cc2ccncc2)NC(=O)[C@H](Cc2ccc(-c3ccc(C(=O)O)cc3)cc2)NC(=O)[C@H]2C[C@@H](Cc3ccc(F)cc3)CN2C(=O)CNC(=O)[C@H](CCN)NC(=O)[C@H](CCC(N)=O)NC(=O)[C@H](Cc2ccncc2)NC(=O)C(C)(C)NC(=O)[C@H](Cc2c[nH]c3ccccc23)NC(=O)[C@H](CCC(=O)O)NC(=O)C(C)(C)NC1=O
# B4: SEQ ID NO: 21 (peptide)
# peptide: cyclo([Bip(4'-COOH)][4Pal][Phe(4-COOH)]G[Pro(cis-4-F)][Trp(βS-Me,4-F)][Aib]EW[3Aminoazetidine3carboxyl][Ala(pyrimidin-5-yl)]Q[Dab]G[dPro(4R-Bzl(4-F))])
# SMILES: C[C@@H](c1c[nH]c2cccc(F)c12)[C@@H]1NC(=O)[C@@H]2C[C@H](F)CN2C(=O)CNC(=O)[C@H](Cc2ccc(C(=O)O)cc2)NC(=O)[C@H](Cc2ccncc2)NC(=O)[C@H](Cc2ccc(-c3ccc(C(=O)O)cc3)cc2)NC(=O)[C@H]2C[C@@H](Cc3ccc(F)cc3)CN2C(=O)CNC(=O)[C@H](CCN)NC(=O)[C@H](CCC(N)=O)NC(=O)[C@H](Cc2cncnc2)NC(=O)C2(CNC2)NC(=O)[C@H](Cc2c[nH]c3ccccc23)NC(=O)[C@H](CCC(=O)O)NC(=O)C(C)(C)NC1=O
# B5: SEQ ID NO: 23 (peptide)
# peptide: cyclo([Bip(4'-COOH)][4Pal][Phe(4-COOH)]G[Pro(cis-4-F)][Trp(βS-Me,4-F)][Aib]EW[d(αMeS)][Ala(pyrimidin-5-yl)]Q[Dab]G[dPro(4R-Bzl(4-F))])
# SMILES: C[C@@H](c1c[nH]c2cccc(F)c12)[C@@H]1NC(=O)[C@@H]2C[C@H](F)CN2C(=O)CNC(=O)[C@H](Cc2ccc(C(=O)O)cc2)NC(=O)[C@H](Cc2ccncc2)NC(=O)[C@H](Cc2ccc(-c3ccc(C(=O)O)cc3)cc2)NC(=O)[C@H]2C[C@@H](Cc3ccc(F)cc3)CN2C(=O)CNC(=O)[C@H](CCN)NC(=O)[C@H](CCC(N)=O)NC(=O)[C@H](Cc2cncnc2)NC(=O)[C@@](C)(CO)NC(=O)[C@H](Cc2c[nH]c3ccccc23)NC(=O)[C@H](CCC(=O)O)NC(=O)C(C)(C)NC1=O
# B6: SEQ ID NO: 13 (peptide)
# peptide: cyclo([Bip(4'-COOH)][Ala(1-bicyclo(1.1.1)pentyl)][Phe(4-COOH)]G[Pro(cis-4-F)][Trp(βS-Me,4-F)][Aib]EW[Aib][Ala(pyrimidin-5-yl)]Q[Dab]G[dPro(4R-Bzl(4-F))])
# SMILES: C[C@@H](c1c[nH]c2cccc(F)c12)[C@@H]1NC(=O)[C@@H]2C[C@H](F)CN2C(=O)CNC(=O)[C@H](Cc2ccc(C(=O)O)cc2)NC(=O)[C@H](CC23CC(C2)C3)NC(=O)[C@H](Cc2ccc(-c3ccc(C(=O)O)cc3)cc2)NC(=O)[C@H]2C[C@@H](Cc3ccc(F)cc3)CN2C(=O)CNC(=O)[C@H](CCN)NC(=O)[C@H](CCC(N)=O)NC(=O)[C@H](Cc2cncnc2)NC(=O)C(C)(C)NC(=O)[C@H](Cc2c[nH]c3ccccc23)NC(=O)[C@H](CCC(=O)O)NC(=O)C(C)(C)NC1=O
# B7: SEQ ID NO: 15 (peptide)
# peptide: cyclo([Bip(4'-COOH)][4Pal][Phe(4-COOH)]G[Pro(cis-4-F)][Trp(βS-Me,4-F)][Aib]EW[Aib][4Pal]Q[Dab]G[dPro(4R-(4-pyridylmethyl))])
# SMILES: C[C@@H](c1c[nH]c2cccc(F)c12)[C@@H]1NC(=O)[C@@H]2C[C@H](F)CN2C(=O)CNC(=O)[C@H](Cc2ccc(C(=O)O)cc2)NC(=O)[C@H](Cc2ccncc2)NC(=O)[C@H](Cc2ccc(-c3ccc(C(=O)O)cc3)cc2)NC(=O)[C@H]2C[C@@H](Cc3ccncc3)CN2C(=O)CNC(=O)[C@H](CCN)NC(=O)[C@H](CCC(N)=O)NC(=O)[C@H](Cc2ccncc2)NC(=O)C(C)(C)NC(=O)[C@H](Cc2c[nH]c3ccccc23)NC(=O)[C@H](CCC(=O)O)NC(=O)C(C)(C)NC1=O
# B8: SEQ ID NO: 14 (peptide)
# peptide: cyclo([Bip(4'-COOH)][4Pal][Phe(4-COOH)]G[Pro(cis-4-F)][Trp(βS-Me,4-F)][Aib]EW[Aib][Ala(pyrimidin-5-yl)]Q[Dab]G[dPro(4R-(4-pyridylmethyl))])
# SMILES: C[C@@H](c1c[nH]c2cccc(F)c12)[C@@H]1NC(=O)[C@@H]2C[C@H](F)CN2C(=O)CNC(=O)[C@H](Cc2ccc(C(=O)O)cc2)NC(=O)[C@H](Cc2ccncc2)NC(=O)[C@H](Cc2ccc(-c3ccc(C(=O)O)cc3)cc2)NC(=O)[C@H]2C[C@@H](Cc3ccncc3)CN2C(=O)CNC(=O)[C@H](CCN)NC(=O)[C@H](CCC(N)=O)NC(=O)[C@H](Cc2cncnc2)NC(=O)C(C)(C)NC(=O)[C@H](Cc2c[nH]c3ccccc23)NC(=O)[C@H](CCC(=O)O)NC(=O)C(C)(C)NC1=O
# B9: SEQ ID NO: 18 (peptide)
# peptide: cyclo([Bip(4'-COOH)][4Pal][Phe(4-COOH)]G[Pro(cis-4-F)][Trp(βS-Me,4-F)][Aib]EW[αMeS][Ala(pyrimidin-5-yl)]Q[Dab]G[dPro(4R-Bzl(4-F))])
# SMILES: C[C@@H](c1c[nH]c2cccc(F)c12)[C@@H]1NC(=O)[C@@H]2C[C@H](F)CN2C(=O)CNC(=O)[C@H](Cc2ccc(C(=O)O)cc2)NC(=O)[C@H](Cc2ccncc2)NC(=O)[C@H](Cc2ccc(-c3ccc(C(=O)O)cc3)cc2)NC(=O)[C@H]2C[C@@H](Cc3ccc(F)cc3)CN2C(=O)CNC(=O)[C@H](CCN)NC(=O)[C@H](CCC(N)=O)NC(=O)[C@H](Cc2cncnc2)NC(=O)[C@](C)(CO)NC(=O)[C@H](Cc2c[nH]c3ccccc23)NC(=O)[C@H](CCC(=O)O)NC(=O)C(C)(C)NC1=O
# B10: SEQ ID NO: 120 (peptide)
# peptide: cyclo([Bip(4'-COOH)][4Pal][Phe(4-COOH)]G[Pro(cis-4-F)][Trp(βS-Me,4-F)][Aib]EW[Aib][Ala(piperazin-1-yl)]Q[Dab]G[dPro(4R-Bzl(4-F))])
# SMILES: C[C@@H](c1c[nH]c2cccc(F)c12)[C@@H]1NC(=O)[C@@H]2C[C@H](F)CN2C(=O)CNC(=O)[C@H](Cc2ccc(C(=O)O)cc2)NC(=O)[C@H](Cc2ccncc2)NC(=O)[C@H](Cc2ccc(-c3ccc(C(=O)O)cc3)cc2)NC(=O)[C@H]2C[C@@H](Cc3ccc(F)cc3)CN2C(=O)CNC(=O)[C@H](CCN)NC(=O)[C@H](CCC(N)=O)NC(=O)[C@H](CN2CCNCC2)NC(=O)C(C)(C)NC(=O)[C@H](Cc2c[nH]c3ccccc23)NC(=O)[C@H](CCC(=O)O)NC(=O)C(C)(C)NC1=O
# B11: SEQ ID NO: 17 (peptide)
# peptide: cyclo([Bip(4'-COOH)][4Pal][Phe(4-COOH)]G[Pro(cis-4-F)][Trp(βS-Me,4-F)][Aib]DW[Aib][Ala(pyrimidin-5-yl)]Q[Dab]G[dPro(4R-Bzl(4-F))])
# SMILES: C[C@@H](c1c[nH]c2cccc(F)c12)[C@@H]1NC(=O)[C@@H]2C[C@H](F)CN2C(=O)CNC(=O)[C@H](Cc2ccc(C(=O)O)cc2)NC(=O)[C@H](Cc2ccncc2)NC(=O)[C@H](Cc2ccc(-c3ccc(C(=O)O)cc3)cc2)NC(=O)[C@H]2C[C@@H](Cc3ccc(F)cc3)CN2C(=O)CNC(=O)[C@H](CCN)NC(=O)[C@H](CCC(N)=O)NC(=O)[C@H](Cc2cncnc2)NC(=O)C(C)(C)NC(=O)[C@H](Cc2c[nH]c3ccccc23)NC(=O)[C@H](CC(=O)O)NC(=O)C(C)(C)NC1=O
# Target: Recombinant human IL-1β (BioLegend 579404) (human, UniProt P01584 117-269)
# Test: cell-based or functional assay
row,Binder,MRC5 IC50 [nM]
1,B1,0.049
2,B2,0.021
3,B3,0.023
4,B4,0.04
5,B5,0.018
6,B6,0.022
7,B7,0.035
8,B8,0.035
9,"cyclo([Bip(4'-COOH)][4Pal][Phe(4-COOH)]G[Pro(cis-4-F)][Trp(βS-Me,4-F)][αMeS]EW[Aib][Ala(pyrimidin-5-yl)]Q[Dab]G[dPro(4R-Bzl(4-F))]) [SEQ ID NO: 22]",0.027
10,"cyclo([Bip(4'-COOH)][4Pal][Phe(4-COOH)]G[Pro(cis-4-F)][Trp(βS-Me,4-F)][3Aminoazetidine3carboxyl]EW[Aib][Ala(pyrimidin-5-yl)]Q[Dab]G[dPro(4R-Bzl(4-F))]) [SEQ ID NO: 20]",0.062
11,B9,0.027
12,B10,0.014
13,B11,0.029
14,"cyclo([TyrEtNAc][4Pal][Phe(4-COOH)]G[Pro(cis-4-F)][Trp(βS-Me,4-F)][Aib]SW[Aib][Ala(pyrimidin-5-yl)]Q[Dab]G[dPro(4R-Bzl(4-F))]) [SEQ ID NO: 16]",0.051

# Source: patent publication US20260242419A1, “A CYCLIC PEPTIDE FOR TRAPPING INTERLEUKIN-1 BETA” (Merck Sharp & Dohme LLC, priority 2023, published 2026)
